The results in this text go back to patent publication US20240024520A1 (UCB, published 2024).

For orientation: Kd means the equilibrium constant for the complex coming apart. One may read the koff as the rate constant with which the complex falls apart. A lower koff goes with a long-lived complex. By kon is commonly meant a measure of how fast the partners come together. As a reminder, the IC50 is the concentration that gives 50% inhibition. A word on the Ki: it is a measure of affinity in units of concentration, obtained from inhibition or displacement. A higher Ki goes with lower affinity.

“And” between values parts separate entries of the source, which are not always exact repeats. Equal values may be shown once. Read-outs that look alike come from different tables or passages of the source. Ends that are not written are not given here.

In assay [1] the target is T1, human complement component C5 (human, UniProt P01031 19-673; P01031 678-1676).
T1 construct: mature; Mature C5 is a disulphide-linked beta and alpha chain cut from one precursor; Terbium-labelled in the FRET assays, biotinylated in part of the phage ELISA; also called human C5; C5-Tb
Briefly: phage ELISA, OD 630 nm, anti-M13 HRP; C5 coated directly and biotinylated C5 captured on streptavidin. On the technique in general: ELISA stands for enzyme-linked immunosorbent assay.

The target in assay [2] is T2, human complement component C3 (human, UniProt P01024 23-667; P01024 672-1663).
T2 construct: also called biotinylated C3
Briefly: SPR (Biacore), C3, mean of n=3. (In general: SPR reads the build-up and loss of mass on a sensor chip optically.)

For assay [3], the target named is T1, human complement component C5. Briefly: SPR (Biacore), C5, mean of n=3.
Assay [4] shares this target. Briefly: cell-based or functional assay.
Assay [5] shares this target. Nature of the assay: cell-based or functional assay. The source holds these as a separate data set.
For assay [6] the target is unchanged. Nature of the assay: cell-based or functional assay. This is another data set of the same source.
Assay [7] shares this target. Briefly: cell-based or functional assay. The source holds these as a separate data set.
For assay [8] the target is unchanged. Nature of the assay: SPR single-cycle kinetics, human C5, n=1.
Assay [9] has the same target. Briefly: SPR multi-cycle kinetics, human C5 immobilised, mean of n=3.
For assay [10] the target is unchanged.
Assay [11] has the same target. The source holds these as a separate data set.
Assay [12] shares this target. This is another data set of the same source.
Assay [13] has the same target. This is another data set of the same source.
Assay [14] shares this target. This is another data set of the same source.
Assay [15] concerns the target T2, human complement component C3. Nature of the assay: counter screen.
Another assay has as its target T3, ovalbumin (UniProt P01012 2-386).
T3 sequence (looked up): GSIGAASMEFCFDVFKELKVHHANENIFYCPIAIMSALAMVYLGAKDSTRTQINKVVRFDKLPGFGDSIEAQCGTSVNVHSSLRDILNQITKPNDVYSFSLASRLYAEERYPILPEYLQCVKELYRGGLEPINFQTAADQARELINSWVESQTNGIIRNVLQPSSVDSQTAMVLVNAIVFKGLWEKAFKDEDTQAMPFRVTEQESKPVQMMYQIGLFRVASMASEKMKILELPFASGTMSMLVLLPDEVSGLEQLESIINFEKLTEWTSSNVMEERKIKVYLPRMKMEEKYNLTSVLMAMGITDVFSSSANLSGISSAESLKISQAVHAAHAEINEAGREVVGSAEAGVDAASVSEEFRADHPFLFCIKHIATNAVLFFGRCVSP
Briefly: counter screen. On the technique in general: The purpose of a counterscreen is to sort out artefacts and off-target activity.

In assay [16] the target is T1, human complement component C5. Briefly: SPR single-cycle kinetics.
Assay [17] has the same target. Briefly: cell-based or functional assay. This is another data set of the same source.
Assay [18] shares this target. Briefly: cell-based or functional assay. This is another data set of the same source.
Another assay deals with T4, mouse C5 (mouse, UniProt P06684 19-674; P06684 679-1680).
T4 construct: mature; also called mouse C5 protein
Briefly: SPR single-cycle kinetics, n=1.

A further assay has as its target T5, rabbit C5 (rabbit).
T5 construct: mature; also called rabbit C5 protein
Nature of the assay: SPR single-cycle kinetics, n=1.

Assay [19] concerns the target T1, human complement component C5. Briefly: cell-based or functional assay. The source holds these as a separate data set.
Assay [20] shares this target. Nature of the assay: cell-based or functional assay. This is another data set of the same source.
For assay [21] the target is unchanged. Briefly: cell-based or functional assay. The source holds these as a separate data set.

T1 sequence (P01031 19-673 limits assumed, chain 1 of 2): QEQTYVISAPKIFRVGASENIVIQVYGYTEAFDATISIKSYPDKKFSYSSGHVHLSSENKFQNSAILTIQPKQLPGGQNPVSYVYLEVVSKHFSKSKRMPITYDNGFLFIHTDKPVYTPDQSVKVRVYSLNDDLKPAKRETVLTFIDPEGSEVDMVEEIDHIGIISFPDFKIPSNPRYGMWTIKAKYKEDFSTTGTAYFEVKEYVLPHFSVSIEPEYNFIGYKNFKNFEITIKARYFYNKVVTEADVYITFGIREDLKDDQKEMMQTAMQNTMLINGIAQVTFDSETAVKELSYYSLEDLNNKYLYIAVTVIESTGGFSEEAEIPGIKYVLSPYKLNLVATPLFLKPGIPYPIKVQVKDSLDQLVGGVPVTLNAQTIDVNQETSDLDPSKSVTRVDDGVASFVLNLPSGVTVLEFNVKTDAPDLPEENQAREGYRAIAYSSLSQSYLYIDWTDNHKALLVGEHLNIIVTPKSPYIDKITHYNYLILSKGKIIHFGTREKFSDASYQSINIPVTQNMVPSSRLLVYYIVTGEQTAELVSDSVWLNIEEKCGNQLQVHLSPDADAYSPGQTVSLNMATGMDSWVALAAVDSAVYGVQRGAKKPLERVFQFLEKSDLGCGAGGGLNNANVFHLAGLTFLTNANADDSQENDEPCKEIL
T1 sequence (P01031 678-1676 limits assumed, chain 2 of 2): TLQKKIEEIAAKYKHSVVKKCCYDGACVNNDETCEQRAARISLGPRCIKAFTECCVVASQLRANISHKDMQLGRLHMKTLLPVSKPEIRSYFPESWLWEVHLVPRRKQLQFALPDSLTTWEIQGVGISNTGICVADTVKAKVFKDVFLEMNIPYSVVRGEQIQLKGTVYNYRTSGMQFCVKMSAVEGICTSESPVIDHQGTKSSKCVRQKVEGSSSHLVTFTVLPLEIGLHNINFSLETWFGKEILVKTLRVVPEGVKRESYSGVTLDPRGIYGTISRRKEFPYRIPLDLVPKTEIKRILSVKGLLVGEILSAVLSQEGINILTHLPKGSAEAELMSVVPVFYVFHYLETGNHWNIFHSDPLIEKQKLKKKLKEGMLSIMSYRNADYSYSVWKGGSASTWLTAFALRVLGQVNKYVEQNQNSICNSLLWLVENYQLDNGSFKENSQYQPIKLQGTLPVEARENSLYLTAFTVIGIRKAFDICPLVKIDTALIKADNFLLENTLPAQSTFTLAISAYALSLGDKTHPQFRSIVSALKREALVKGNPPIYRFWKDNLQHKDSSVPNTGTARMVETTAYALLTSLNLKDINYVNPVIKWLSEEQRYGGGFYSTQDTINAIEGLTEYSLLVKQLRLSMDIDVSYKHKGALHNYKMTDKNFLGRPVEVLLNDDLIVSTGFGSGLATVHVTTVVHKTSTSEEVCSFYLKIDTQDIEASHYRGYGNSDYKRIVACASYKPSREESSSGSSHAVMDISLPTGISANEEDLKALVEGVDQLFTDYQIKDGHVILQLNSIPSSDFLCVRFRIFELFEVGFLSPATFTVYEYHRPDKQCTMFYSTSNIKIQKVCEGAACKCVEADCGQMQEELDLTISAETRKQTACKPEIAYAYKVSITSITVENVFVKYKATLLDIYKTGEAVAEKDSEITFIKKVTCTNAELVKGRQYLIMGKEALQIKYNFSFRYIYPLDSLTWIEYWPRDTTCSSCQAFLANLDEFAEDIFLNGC
T4 sequence (P06684 19-674 limits assumed, chain 1 of 2): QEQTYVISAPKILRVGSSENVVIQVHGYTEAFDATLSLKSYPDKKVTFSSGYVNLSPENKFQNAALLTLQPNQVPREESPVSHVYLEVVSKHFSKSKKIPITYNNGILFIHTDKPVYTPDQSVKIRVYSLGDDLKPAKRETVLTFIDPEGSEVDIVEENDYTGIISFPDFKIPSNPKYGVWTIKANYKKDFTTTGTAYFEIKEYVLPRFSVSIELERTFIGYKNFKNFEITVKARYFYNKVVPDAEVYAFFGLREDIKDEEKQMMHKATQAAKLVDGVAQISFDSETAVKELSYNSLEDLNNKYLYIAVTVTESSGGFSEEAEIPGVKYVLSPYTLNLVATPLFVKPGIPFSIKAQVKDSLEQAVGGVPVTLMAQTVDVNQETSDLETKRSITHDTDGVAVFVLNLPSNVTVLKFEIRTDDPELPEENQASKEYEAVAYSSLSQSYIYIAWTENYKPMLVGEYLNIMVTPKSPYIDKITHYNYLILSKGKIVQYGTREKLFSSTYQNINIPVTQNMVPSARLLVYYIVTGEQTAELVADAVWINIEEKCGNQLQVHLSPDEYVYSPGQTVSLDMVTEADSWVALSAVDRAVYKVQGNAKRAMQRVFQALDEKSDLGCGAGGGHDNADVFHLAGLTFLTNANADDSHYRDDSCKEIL
T4 sequence (P06684 679-1680 limits assumed, chain 2 of 2): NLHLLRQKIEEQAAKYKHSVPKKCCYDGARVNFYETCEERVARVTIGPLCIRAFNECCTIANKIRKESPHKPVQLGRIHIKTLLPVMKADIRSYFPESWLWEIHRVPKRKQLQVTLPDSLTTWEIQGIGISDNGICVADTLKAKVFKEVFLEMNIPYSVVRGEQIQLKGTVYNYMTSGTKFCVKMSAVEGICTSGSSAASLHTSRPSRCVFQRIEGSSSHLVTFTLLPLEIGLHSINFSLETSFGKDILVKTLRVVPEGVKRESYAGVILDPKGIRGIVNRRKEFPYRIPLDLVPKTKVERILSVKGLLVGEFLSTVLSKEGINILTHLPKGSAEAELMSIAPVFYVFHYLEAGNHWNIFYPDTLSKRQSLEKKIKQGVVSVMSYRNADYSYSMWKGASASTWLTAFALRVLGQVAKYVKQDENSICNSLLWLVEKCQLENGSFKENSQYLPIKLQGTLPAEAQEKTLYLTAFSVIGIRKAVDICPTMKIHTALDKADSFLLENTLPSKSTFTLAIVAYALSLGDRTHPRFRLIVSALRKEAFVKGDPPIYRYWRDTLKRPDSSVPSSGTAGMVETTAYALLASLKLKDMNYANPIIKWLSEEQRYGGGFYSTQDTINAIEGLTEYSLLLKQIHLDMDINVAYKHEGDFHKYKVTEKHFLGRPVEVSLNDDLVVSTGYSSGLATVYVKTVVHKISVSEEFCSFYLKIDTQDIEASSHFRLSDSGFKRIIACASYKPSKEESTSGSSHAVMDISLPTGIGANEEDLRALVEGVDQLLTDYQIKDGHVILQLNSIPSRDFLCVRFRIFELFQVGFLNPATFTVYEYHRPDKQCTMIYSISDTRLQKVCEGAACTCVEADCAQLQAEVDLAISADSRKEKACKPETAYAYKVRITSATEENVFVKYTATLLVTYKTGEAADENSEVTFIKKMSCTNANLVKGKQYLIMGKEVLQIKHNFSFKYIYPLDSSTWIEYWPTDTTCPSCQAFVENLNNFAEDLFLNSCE
T2 sequence (P01024 23-667 limits assumed, chain 1 of 2): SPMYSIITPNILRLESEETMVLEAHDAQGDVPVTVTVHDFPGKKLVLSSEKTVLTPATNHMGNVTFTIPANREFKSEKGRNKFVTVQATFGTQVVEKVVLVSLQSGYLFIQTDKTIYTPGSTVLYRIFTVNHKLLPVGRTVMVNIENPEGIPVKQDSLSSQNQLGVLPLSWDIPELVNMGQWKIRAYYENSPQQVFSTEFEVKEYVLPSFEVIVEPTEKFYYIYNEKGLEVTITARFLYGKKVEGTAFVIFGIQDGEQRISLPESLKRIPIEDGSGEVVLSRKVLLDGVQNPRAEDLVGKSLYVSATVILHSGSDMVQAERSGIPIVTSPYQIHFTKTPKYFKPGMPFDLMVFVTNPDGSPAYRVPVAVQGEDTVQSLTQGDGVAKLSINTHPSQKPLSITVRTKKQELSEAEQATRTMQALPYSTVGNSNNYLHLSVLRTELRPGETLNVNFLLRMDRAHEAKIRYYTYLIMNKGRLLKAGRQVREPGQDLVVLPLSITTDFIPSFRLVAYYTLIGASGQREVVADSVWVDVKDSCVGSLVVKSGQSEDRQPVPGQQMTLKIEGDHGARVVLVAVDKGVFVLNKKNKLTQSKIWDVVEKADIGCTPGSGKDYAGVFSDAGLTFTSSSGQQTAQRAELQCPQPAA
T2 sequence (P01024 672-1663 limits assumed, chain 2 of 2): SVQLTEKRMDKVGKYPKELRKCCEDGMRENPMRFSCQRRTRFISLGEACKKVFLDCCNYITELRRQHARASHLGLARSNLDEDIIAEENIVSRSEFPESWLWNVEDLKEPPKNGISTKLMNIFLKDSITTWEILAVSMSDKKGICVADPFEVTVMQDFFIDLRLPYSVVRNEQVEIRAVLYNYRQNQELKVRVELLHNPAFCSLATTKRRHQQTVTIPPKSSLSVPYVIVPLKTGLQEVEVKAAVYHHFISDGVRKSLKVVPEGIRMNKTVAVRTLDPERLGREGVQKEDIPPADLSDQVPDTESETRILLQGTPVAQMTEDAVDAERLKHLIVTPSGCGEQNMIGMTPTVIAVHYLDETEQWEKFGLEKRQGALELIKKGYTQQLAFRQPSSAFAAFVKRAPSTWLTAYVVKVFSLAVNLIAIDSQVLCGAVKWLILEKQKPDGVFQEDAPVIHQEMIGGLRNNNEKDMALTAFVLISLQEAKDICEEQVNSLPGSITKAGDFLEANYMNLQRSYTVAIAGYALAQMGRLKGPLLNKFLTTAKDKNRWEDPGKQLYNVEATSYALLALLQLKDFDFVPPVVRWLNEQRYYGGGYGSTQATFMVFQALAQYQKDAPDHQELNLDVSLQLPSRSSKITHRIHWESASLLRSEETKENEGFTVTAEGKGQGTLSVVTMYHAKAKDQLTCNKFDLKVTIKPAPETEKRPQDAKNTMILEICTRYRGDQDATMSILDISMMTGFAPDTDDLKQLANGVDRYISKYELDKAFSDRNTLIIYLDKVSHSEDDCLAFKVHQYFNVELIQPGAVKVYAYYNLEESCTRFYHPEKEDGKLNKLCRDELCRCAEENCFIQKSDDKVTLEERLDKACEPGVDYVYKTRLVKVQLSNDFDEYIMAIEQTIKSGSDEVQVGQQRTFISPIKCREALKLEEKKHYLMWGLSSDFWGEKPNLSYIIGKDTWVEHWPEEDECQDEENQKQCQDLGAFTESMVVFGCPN

B1: hC3nb1 VHH displayed on M13 phage (VHH)
VHH: QVQLVETGGGLVQAGGSLRLSCAASGSIFSLNAMGWFRQAPGKEREFVATINRSGGRTYYADSVKGRFTISRDNGKNMVYLQMHSLKPEDTAIYYCAAGTGWSPQTDNEYNYWGQGTQVTVSS
notes: not shown: poly-histidine, c-myc tag, M13 pIII
As for B1, the binding result in [1] is given as “no binding”.

B2: hC3nb1-K57 C-term with C-terminal single-chain Fc tag (bispecific antibody, V domains shown, not shown: a dimerising Fc or GST)
VH: B1 VHH
notes: also called hC3Nb1 C-Term
Regarding B2, the equilibrium dissociation constant (Kd) in [2] amounted to 0.302 nM; in assay [3], 0.271 nM.

B3: K8 knob domain peptide, chemically synthesised, free energy method (peptide)
peptide: VCPDGFNWGYGCAAGSSRFCTRHDWCCYDERADSHTYGFCTGNRV
modifications: disulfide (positions not given here); not fully specified
notes: Disulphides formed in glutathione redox buffer; also called K8chemFE; K8chem
Consider B3, for which, in assay [4], the “Classical pathway C5b deposition ELISA, average Emax” value worked out at 47.3% and the “Classical pathway C5b deposition ELISA, geomean IC50” value stood at 9.8 nM. Also, in assay [5], the “Alternative pathway C5b neoepitope ELISA, average Emax” value came out at 91.5% and the “Alternative pathway C5b neoepitope ELISA, geomean IC50” value was found to be 46.1 nM. The “classical pathway complement ELISA (C5b deposition); IC50 (read off the curve)” value in [6] was around 30 nM. In addition, the “alternative pathway complement ELISA (C5b deposition); IC50 (read off the curve)” value in [7] was around 80 nM. In [8], this molecule showed an equilibrium dissociation constant (Kd) of 12.1 nM, an off-rate constant (koff) of 0.000397 s⁻¹ and a kon of 32900 M⁻¹ s⁻¹. Further, in [9], the equilibrium dissociation constant (Kd) turned out to be 5.46 nM, the off-rate (koff) was determined as 0.000385 s⁻¹ and the kon stood at 70500 M⁻¹ s⁻¹.

B4: PGT121 Fab-K57 knob domain fusion protein (Fab)
heavy: QMQLQESGPGLVKPSETLSLTCSVSGASISDSYWSWIRRSPGKGLEWIGYVHKSGDTNYSPSLKSRVNLSLDTSKNQVSLSLVAATAADSGKYYCARTLHGRRIYGSENLYFQGSGCPPGYKSGVDCSPGSECKWGCYAVDGRRYGGYGADSGVENLYFQGSEWFTYFYMDVWGNGTQVTVSSASTKGPSVFPLAPSSKSTSGGTAALGCLVKDYFPEPVTVSWNSGALTSGVHTFPAVLQSSGLYSLSSVVTVPSSSLGTQTYICNVNHKPSNTKVDKRVEPKSCDKTLEENLYFQGSGGSHHHHHHHHHH
light: QSVLTQPPDISVAPGETARISCGEKSLGSRAVQWYQHRAGQAPSLIIYNNQDRPSGIPERFSGSPDSPFGTTATLTITSVEAGDEADYYCHIWDSRVPTKWVFGGGTTLTVLGQPKAAPSVTLFPPSSEELQANKATLVCLISDFYPGAVTVAWKADSSPVKAGVETTTPSKQSNNKYAASSYLSLTPEQWKSHRSYSCQVTHEGSTVEKTVAPTECS
For the molecule B4, in assay [10], the dissociation constant (Kd) worked out at 4.1 nM, the off-rate constant (koff) was determined as 0.000132 s⁻¹ and the kon amounted to 32300 M⁻¹ s⁻¹. Further, the Kd in assay [11] was 4.9 nM and 3 nM and 3.4 nM and 3.7 nM. Besides, the equilibrium dissociation constant (Kd) in [12] was 3.3 nM and 2.3 nM and 3.4 nM and 3 nM.

B5: PGT121 Fab-K136 knob domain fusion protein (Fab)
heavy: QMQLQESGPGLVKPSETLSLTCSVSGASISDSYWSWIRRSPGKGLEWIGYVHKSGDTNYSPSLKSRVNLSLDTSKNQVSLSLVAATAADSGKYYCARTLHGRRIYGSENLYFQGTCPDNYREVDGCDPYDCCLTTWCTNSYCTRYIENLYFQGSEWFTYFYMDVWGNGTQVTVSSASTKGPSVFPLAPSSKSTSGGTAALGCLVKDYFPEPVTVSWNSGALTSGVHTFPAVLQSSGLYSLSSVVTVPSSSLGTQTYICNVNHKPSNTKVDKRVEPKSCDKTLEENLYFQGSGGSHHHHHHHHHH
light: B4 light
B5: the dissociation constant (Kd) is below 0.1 nM in assay [10]; 46.3 nM and 115 nM and 73 nM in [11]; 46.3 nM and 23.4 nM and 58.1 nM and 39.8 nM in [12]. The molecule further displayed a dissociation rate constant (koff) in assay [10] below 1e-05 s⁻¹. Also, the on-rate (kon) in assay [10] worked out at 9520 M⁻¹ s⁻¹.

B6: PGT121 Fab-K92 knob domain fusion protein (Fab)
heavy: QMQLQESGPGLVKPSETLSLTCSVSGASISDSYWSWIRRSPGKGLEWIGYVHKSGDTNYSPSLKSRVNLSLDTSKNQVSLSLVAATAADSGKYYCARTLHGRRIYGSENLYFQGVTCPEGWSECGVAIYGYECGRWGCGHFLNSGPNISPYVTTGSENLYFQGSEWFTYFYMDVWGNGTQVTVSSASTKGPSVFPLAPSSKSTSGGTAALGCLVKDYFPEPVTVSWNSGALTSGVHTFPAVLQSSGLYSLSSVVTVPSSSLGTQTYICNVNHKPSNTKVDKRVEPKSCDKTLEENLYFQGSGGSHHHHHHHHHH
light: B4 light
As for B6, the Kd in [10] was below 0.1 nM; in assay [11], 14 nM and 10.3 nM and 15.5 nM and 13.1 nM; in assay [12] it was 19.3 nM and 7.7 nM and 11.3 nM and 11.9 nM. The same molecule registered a koff in assay [10] below 2.93e-05 s⁻¹. Further, in [10], the kon was determined as 28000 M⁻¹ s⁻¹.

B7: K92 knob domain peptide cleaved from the 645 Fab (peptide)
peptide: GSGSVTCPEGWSECGVAIYGYECGRWGCGHFLNSGPNISPYVTTGSENLYFQ
notes: Recombinant, cut out by TEV protease
In assay [13], B7 registered a Kd below 0.85 nM, a dissociation rate constant (koff) of 0.000113 s⁻¹ and a kon of 124000 M⁻¹ s⁻¹. Further, in [14], the IC50 was 7.6 nM and 7.4 nM and 7.3 nM; the affinity corresponds to a Ki of 3.7 nM. Further, the binding result in assay [15] is recorded as “no binding”. In addition, the binding result with ovalbumin is “no binding”. This molecule showed a Kd in assay [16] below 40 nM. Also, in assay [17], the “Inhibition of alternative pathway mediated C5a release, average Emax” value amounted to 43.3% and the “Inhibition of alternative pathway mediated C5a release, geomean IC50” value was 43.3 nM. Besides, in [18], the “Inhibition of alternative pathway mediated bacterial lysis, average Emax” value turned out to be 91% and the “Inhibition of alternative pathway mediated bacterial lysis, geomean IC50” value was determined as 2460 nM. In the assay with mouse C5, this molecule had a Kd of 63.1 nM, an off-rate constant (koff) of 0.00487 s⁻¹ and a kon of 77200 M⁻¹ s⁻¹. For the same molecule, in the assay with rabbit C5, the dissociation constant (Kd) is 76.6 nM, the koff turned out to be 0.00466 s⁻¹ and the association rate constant (kon) came out at 60800 M⁻¹ s⁻¹.

B8: hC3nb1-K57 loop 2 delta proline with C-terminal single-chain Fc tag (bispecific antibody, V domains shown, not shown: a dimerising Fc or GST)
VH: WFRQASGGGSGCPPGYKSGVDCSPGSECKWGCYAVDGRRYGGYGADSGVSGGGSKEREFVATINRSGGRTYYADSVKGRFTISRDNGKNMVYLQMHSLKPEDTAIYYCAAGTGWSPQTDNEYNYWGQGTQVTVSS
notes: also called hC3Nb1Loop2ΔP
On to B8, for which, in assay [3], the Kd was 0.864 nM. Besides, the “classical pathway C5b neoepitope ELISA; IC50 (read off the curve)” value in assay [19] is around 20 nM.

B9: K8 knob domain peptide cleaved from the 645 Fab (peptide)
peptide: GSVCPDGFNWGYGCAAGSSRFCTRHDWCCYDERADSHTYGFCTGNRVENLYFQ
notes: as for B7
As to B9, in assay [13], the affinity, expressed as Kd, was 17.3 nM; the koff was found to be 0.000357 s⁻¹; the on-rate (kon) came out at 26100 M⁻¹ s⁻¹. Also, in assay [14], the IC50 is 20.7 nM and 31.2 nM and 26.1 nM and 25.6 nM; the affinity, expressed as Ki, was 12.8 nM. For the same molecule, the binding result in assay [15] is reported as “no binding”. Besides, in the assay with ovalbumin, the binding result was “no binding”. For the same molecule, the dissociation constant (Kd) in assay [16] was below 40 nM. The “Inhibition of classical pathway mediated C5a release, geomean IC50” value in assay [20] was 9.9 nM. In addition, in assay [17], the “Inhibition of alternative pathway mediated C5a release, average Emax” value is 71.8% and the “Inhibition of alternative pathway mediated C5a release, geomean IC50” value worked out at 150 nM. Also, in assay [21], the “Inhibition of classical pathway mediated bacterial lysis, geomean IC50” value is 16900 nM. For the same molecule, in assay [18], the “Inhibition of alternative pathway mediated bacterial lysis, average Emax” value came to 98.1% and the “Inhibition of alternative pathway mediated bacterial lysis, geomean IC50” value worked out at 25800 nM. In the assay with mouse C5, this molecule returned a Kd of 4.69 nM, a koff of 0.00019 s⁻¹ and an association rate constant (kon) of 40400 M⁻¹ s⁻¹. For the same molecule, in the assay with rabbit C5, the dissociation constant (Kd) was 9.12 nM, the dissociation rate constant (koff) was determined as 0.000296 s⁻¹ and the kon amounted to 32400 M⁻¹ s⁻¹.
